The target in assay [1] is recombinant human FcRn (FcγRn-SmBiT, Lumit assay) (human) (UniProt P55899). The experiment in a line: Lumit FcRn Binding Immunoassay (Promega), competition with Tracer-LgBiT for FcRn-SmBiT, n=1.
The next assay deals with FcγRIIa (CD32) (H131). Kind of assay: Lumit FcγRIIa (H131) Binding Immunoassay (Promega), left panel FcγRIIa (CD32) (H131), competition with Tracer-LgBiT, n=1.
Assay [2] addresses FcγRIIIa (CD16) (V158) (Homo sapiens) (UniProt P08637). The experiment in a line: Lumit FcγRIIIa (V158) Binding Immunoassay (Promega), left panel FcγRIIIa (CD16) (V158), competition with Tracer-LgBiT, n=1.

The results in this text go back to patent US20240182596A1, “ANTI-NAPI2B ANTIBODIES AND ANTIBODY-DRUG-CONJUGATES BASED THEREON, THERAPEUTIC METHODS AND USES THEREOF” (Tubulis GmbH, priority 2022, published 2024).

recombinant human FcRn (FcγRn-SmBiT, Lumit assay) (human), sequence (P55899 24-297 limits assumed, chain 1 of 2): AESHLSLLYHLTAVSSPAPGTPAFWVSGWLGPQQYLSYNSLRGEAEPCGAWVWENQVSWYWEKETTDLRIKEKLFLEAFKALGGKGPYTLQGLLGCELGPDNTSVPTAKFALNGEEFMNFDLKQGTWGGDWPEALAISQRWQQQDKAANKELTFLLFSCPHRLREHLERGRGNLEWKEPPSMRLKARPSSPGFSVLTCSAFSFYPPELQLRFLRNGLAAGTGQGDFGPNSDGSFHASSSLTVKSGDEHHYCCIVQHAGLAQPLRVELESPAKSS
recombinant human FcRn (FcγRn-SmBiT, Lumit assay) (human), sequence (chain, as listed by the source limits assumed, chain 2 of 2): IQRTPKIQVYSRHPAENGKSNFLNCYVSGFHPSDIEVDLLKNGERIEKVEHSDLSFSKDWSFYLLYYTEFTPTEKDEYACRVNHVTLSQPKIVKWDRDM
FcγRIIa (CD32) (H131), sequence (chain, as listed by the source limits assumed): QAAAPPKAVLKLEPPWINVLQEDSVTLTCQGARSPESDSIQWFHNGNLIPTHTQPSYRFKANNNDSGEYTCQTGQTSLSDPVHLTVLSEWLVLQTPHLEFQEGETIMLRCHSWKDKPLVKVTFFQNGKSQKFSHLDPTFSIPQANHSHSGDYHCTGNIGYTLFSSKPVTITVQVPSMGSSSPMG
FcγRIIIa (CD16) (V158) (Homo sapiens), sequence (P08637 17-208 F176V limits assumed): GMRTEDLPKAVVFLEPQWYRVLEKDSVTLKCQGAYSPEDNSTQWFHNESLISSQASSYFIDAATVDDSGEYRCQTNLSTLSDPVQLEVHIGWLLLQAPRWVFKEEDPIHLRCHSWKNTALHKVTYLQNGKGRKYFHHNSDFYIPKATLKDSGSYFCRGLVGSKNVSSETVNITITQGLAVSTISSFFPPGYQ

With “IgG1 positive control (standard of the Lumit FcγR Binding Immunoassays) (antibody)”, the values for the IC50 (read off the curve) (in assay [1]; with FcγRIIa (CD32) (H131); in assay [2]) were 2 µg/mL, 1 µg/mL and 2 µg/mL, respectively.
